Results taken from patent publication US20190169256A1 (YISSUM RESEARCH DEVELOPMENT COMPANY OF THE HEBREW …, published 2019).
Numbered stars: 1 amine (or outer) side, 2 acyl side, 3 side chain; on linkers, the order of the positions; unused ones are H or OH. Square brackets hold non-standard residues; d marks the D form. Suc = O=C(CCC(=O)[*:2])[*:1]; NMeV = CN[C@H](C(=O)O)C(C)C; βAla = NCCC(=O)O

Legend:
Assay in all cases: cell-based or functional assay
Tilapia tac3 receptor = Tilapia tac3 receptor (tilapia)
Zebrafish tac3 receptor = Zebrafish tac3 receptor (zebrafish)
Salmon tac3 receptor = Salmon tac3 receptor (salmon)

Row | Binder | reduction of the NKB-induced luciferase response (CRE-Luc) (Tilapia tac3 receptor) [%] | reduction of the NKB-induced response (CRE-Luc) (Zebrafish tac3 receptor) [%] | IC50 of inhibition of slNKB-induced SRE-Luciferase activity (Salmon tac3 receptor) [nM] | reduction of the NKB-induced luciferase response (CRE-Luc) (Salmon tac3 receptor) [%]
1 | Suc-DIF[NMeV][βAla]LM-NH2 (SMILES CC[C@H](C)[C@H](NC(=O)[C@H](CC(=O)O)NC(=O)CCC(=O)O)C(=O)N[C@@H](Cc1ccccc1)C(=O)N(C)[C@H](C(=O)NCCC(=O)N[C@@H](CC(C)C)C(=O)N[C@@H](CCSC)C(N)=O)C(C)C) [Ant-1] | ~60 | ~60 |  | 
2 | Suc-DSF[NMeV][βAla]LM-NH2 (SMILES CSCC[C@H](NC(=O)[C@H](CC(C)C)NC(=O)CCNC(=O)[C@H](C(C)C)N(C)C(=O)[C@H](Cc1ccccc1)NC(=O)[C@H](CO)NC(=O)[C@H](CC(=O)O)NC(=O)CCC(=O)O)C(N)=O) [Ant-3] | ~60 | ~60 | 6.16 | 
3 | Suc-DF[NMeV][βAla]LM-NH2 (SMILES CSCC[C@H](NC(=O)[C@H](CC(C)C)NC(=O)CCNC(=O)[C@H](C(C)C)N(C)C(=O)[C@H](Cc1ccccc1)NC(=O)[C@H](CC(=O)O)NC(=O)CCC(=O)O)C(N)=O) [Ant-2] | ~60 | ~60 | 2600 | 

Continued, values first:

Row | reduction of the NKB-induced luciferase response (CRE-Luc) (Tilapia tac3 receptor) [%] | reduction of the NKB-induced response (CRE-Luc) (Zebrafish tac3 receptor) [%] | IC50 of inhibition of slNKB-induced SRE-Luciferase activity (Salmon tac3 receptor) [nM] | reduction of the NKB-induced luciferase response (CRE-Luc) (Salmon tac3 receptor) [%] | Binder
4 | ~60 | ~60 |  |  | Suc-D[dW][NMeV][βAla]LM-NH2 (SMILES CSCC[C@H](NC(=O)[C@H](CC(C)C)NC(=O)CCNC(=O)[C@H](C(C)C)N(C)C(=O)[C@@H](Cc1c[nH]c2ccccc12)NC(=O)[C@H](CC(=O)O)NC(=O)CCC(=O)O)C(N)=O) [Ant-5]
5 | ~60 | ~60 | 870 | ~60 | Suc-DS[dW][NMeV][βAla]LM-NH2 (SMILES CSCC[C@H](NC(=O)[C@H](CC(C)C)NC(=O)CCNC(=O)[C@H](C(C)C)N(C)C(=O)[C@@H](Cc1c[nH]c2ccccc12)NC(=O)[C@H](CO)NC(=O)[C@H](CC(=O)O)NC(=O)CCC(=O)O)C(N)=O) [Ant-6]
6 | ~60 | ~60 |  | ~60 | Suc-DI[dW][NMeV][βAla]LM-NH2 (SMILES CC[C@H](C)[C@H](NC(=O)[C@H](CC(=O)O)NC(=O)CCC(=O)O)C(=O)N[C@H](Cc1c[nH]c2ccccc12)C(=O)N(C)[C@H](C(=O)NCCC(=O)N[C@@H](CC(C)C)C(=O)N[C@@H](CCSC)C(N)=O)C(C)C) [Ant-4]
